Data from the RNAGym collection of RNA variant scans (doi:10.7554/elife.90254).

B1: LINE1-full (parent)
chain: UACGUAGGUGGUUUUCCCCUGAUAGUGCUAAGGGGGCCUGGAAGUUUGGACUGGGCAGAGCUCAACACAGCGUGGCAAAGUGGCUGUGGCUAGACUGCCUCUCUGGAUUCCUCGUCACUCAGCAGGGCAUCUCUGAGAGAAAUGCC

Variants of: B1
Test: self-cleavage, relative activity (ratio to wild type); higher = more cleavage; in vitro, sequencing; the parent is a self-cleaving ribozyme

Variant | self-cleavage
UACGUAGGUGGUUUUCCCCUGAUAGUGCUAAAGGGGCCUGGAAGUUUGGACUGGGCAGAGCUCAACACAGCGUGGCAAAGUGGCUGUGGCUAGACAGCCUCUCUGGAUUCCUCGUCACUCAGCAGGGCAUCUCUGAGAGAAAUGCC [G32A U96A] | 0.05
UACGUAGGUGGUUUUCCCCUGAUAGUGCUAACGGGGCCUGGAAGUUUGGACUGGGCAGAGCUCAACACAGCGUGGCAAAGUGGCUGUGGCUAGACUGCCUCUCUGGAUACCUCGUCACUCAGCAGGGCAUCUCUGAGAGAAAUGCC [G32C U109A] | 1.56
UACGUAGGUGGUUUUCCCCUGAUAGUGCUAACGGGGCCUGGAAGUUUGGACUGGGCAGAGCUCAACACAGCGUGGCAAAGUGGCCGUGGCUAGACUGCCUCUCUGGAUUCCUCGUCACUCAGCAGGGCAUCUCUGAGAGAAAUGCC [G32C U85C] | 0.27
UACGUAGGUGGUUUUCCCCUGAUAGUGCUAACGGGGCCUGGAAGUUUGGACUGGGCAGAGCUCAACACAGCGUGGCAAAGUGGCUGUGGCUAGACUGCCUCUCGGGAUUCCUCGUCACUCAGCAGGGCAUCUCUGAGAGAAAUGCC [G32C U104G] | 1.26
UACGUAGGUGGUUUUCCCCUGAUAGUGCUAAAGGGGCCUGGAAGUUUGGACUGGGCAGAGCUCAACACAGCGUGGCAAAGUGGCUGUGGCUAGACUGCCUCUCUGGAUUCCUCGACACUCAGCAGGGCAUCUCUGAGAGAAAUGCC [G32A U115A] | 1.5
UACGUAGGUGGUUUUCCCCUGAUAGUGCUAAAGGGGCCUGGAAGUUUGGACUGGGCAGAGCUCAACACAGCGUGGCAAAGUGGCUGUGGCUAGACUGCCUCUCUGGAUUCCUCGCCACUCAGCAGGGCAUCUCUGAGAGAAAUGCC [G32A U115C] | 0.95
UACGUAGGUGGUUUUCCCCUGAUAGUGCUAAUGGGGCCUGGAAGUUUGGACUGGGCAGAGCUCAACACAGCGUGGCAAAGUGGCUGUGGCUAGACUGCCUCUCUGGAUUCCUAGUCACUCAGCAGGGCAUCUCUGAGAGAAAUGCC [G32U C113A] | 0.96
UACGUAGGUGGUUUUCCCCUGAUAGUGCUAAUGGGGCCUGGAAGUUUGGACUGGGCAGAGCUCAACACAGCGUGGCAAAGUGGCUGUGGCUAGACUGCCUCUCUGGAUUCCUUGUCACUCAGCAGGGCAUCUCUGAGAGAAAUGCC [G32U C113U] | 0.49
UACGUAGGUGGUUUUCCCCUGAUAGUGCUAACUGGGCCUGGAAGUUUGGACUGGGCAGAGCUCAACACAGCGUGGCAAAGUGGCUGUGGCUAGACUGCCUCUCUGGAUUCCUCGUCACUCAGCAGGGCAUCUCUGAGAGAAAUGCC [G32C G33U] | 1.02
UACGUAGGUGGUUUUCCCCUGAUAGUGCUAAUGGGGCCUGGAAGAUUGGACUGGGCAGAGCUCAACACAGCGUGGCAAAGUGGCUGUGGCUAGACUGCCUCUCUGGAUUCCUCGUCACUCAGCAGGGCAUCUCUGAGAGAAAUGCC [G32U U45A] | 1.17
UACGUAGGUGGUUUUCCCCUGAUAGUGCUAAUGGGGCCUGGAAGUUUGGACUGGGCAGAGCUCAACACAGCGUGGCAAAGUGGCUGUGGCUAGACUGCCUCUCUGGAUUCCUCGUCACUCAGCAGGGCAUCACUGAGAGAAAUGCC [G32U U132A] | 1.2
UACGUAGGUGGUUUUCCCCUGAUAGUGCUAAUGGGGCCUGGAAGUUUGGACUGGGCAGAGCUCAACUCAGCGUGGCAAAGUGGCUGUGGCUAGACUGCCUCUCUGGAUUCCUCGUCACUCAGCAGGGCAUCUCUGAGAGAAAUGCC [G32U A67U] | 0.13
UACGUAGGUGGUUUUCCCCUGAUAGUGCUAAAGGGGCCUGGAAGUCUGGACUGGGCAGAGCUCAACACAGCGUGGCAAAGUGGCUGUGGCUAGACUGCCUCUCUGGAUUCCUCGUCACUCAGCAGGGCAUCUCUGAGAGAAAUGCC [G32A U46C] | 1.19
UACGUAGGUGGUUUUCCCCUGAUAGUGCUAACGGGGCCUGGUAGUUUGGACUGGGCAGAGCUCAACACAGCGUGGCAAAGUGGCUGUGGCUAGACUGCCUCUCUGGAUUCCUCGUCACUCAGCAGGGCAUCUCUGAGAGAAAUGCC [G32C A42U] | 1.67
UACGUAGGUGGUUUUCCCCUGAUAGUGCUAAUGGGGCCUGGAAGUUUGGACUGGGCAGAGCUCAACACAGCGUGGCAAAGUGGCUGUGGCUAGACCGCCUCUCUGGAUUCCUCGUCACUCAGCAGGGCAUCUCUGAGAGAAAUGCC [G32U U96C] | 0.08
UACGUAGGUGGUUUUCCCCUGAUAGUGCUAAUGGGGCCUGGAAGUUUGGACUGGGCAGAGCUCAACACAGCGUGGCAAAGUGGCUGUGGCUAGACUGCCUCUCUGGAUUCCUCGACACUCAGCAGGGCAUCUCUGAGAGAAAUGCC [G32U U115A] | 1.04
UACGUAGGUGGUUUUCCCCUGAUAGUGCUAAUGGGGCCUGGAAGUUUGGACUGGGCAGAGCUCAACACAGCGUGGCAAAGUGGCUGUGGCGAGACUGCCUCUCUGGAUUCCUCGUCACUCAGCAGGGCAUCUCUGAGAGAAAUGCC [G32U U91G] | 0.1
UACGUAGGUGGUUUUCCCCUGAUAGUGCUAACGGGGCCUGGAAGUUUGGACUGGGCAGAGCUCAACACAGCGUGGCAAAGUGGCUGUGGCUAGACUGCCUCUCUGGAUUCCUCGUCACUCAGCAGGGCAUCUCUGAGGGAAAUGCC [G32C A138G] | 0.84
UACGUAGGUGGUUUUCCCCUGAUAGUGCUAAAGGGGCCUGGAAGUUUGGACUGGGCAGAGCUCAACACAGCGUGGCAAAGUGGCUGUGGCUAGACUGCCUCACUGGAUUCCUCGUCACUCAGCAGGGCAUCUCUGAGAGAAAUGCC [G32A U102A] | 0.63
UACGUAGGUGGUUUUCCCCUGAUAGUGCUAAAGGGGCCUGGAAGUUUGGACUGGGCAGAGCUCAACACAGCGUGGCAAAGUGGCUGUGGCUAGACUGCCCCUCUGGAUUCCUCGUCACUCAGCAGGGCAUCUCUGAGAGAAAUGCC [G32A U100C] | 1.34

Variant | self-cleavage
UACGUAGGUGGUUUUCCCCUGAUAGUGCUAAAGGGGCCUGGAAGUUUGGACUGGGCAGAGCUCAACACAGCGUGGCAAAGUGGCUGUGGCUAGACUGCCACUCUGGAUUCCUCGUCACUCAGCAGGGCAUCUCUGAGAGAAAUGCC [G32A U100A] | 0.74
UACGUAGGUGGUUUUCCCCUGAUAGUGCUAAAGGGGCCUGGAAGUUUGGACUGGGCAGAGCUCAACACAGCGUGGCAAAGUGGCUUUGGCUAGACUGCCUCUCUGGAUUCCUCGUCACUCAGCAGGGCAUCUCUGAGAGAAAUGCC [G32A G86U] | 0.12
UACGUAGGUGGUUUUCCCCUGAUAGUGCUAAUGGGGCCUGGAAGUUUGGACUGGGCAGAGCUCAACACAGCGUGGCAAAGUGGCUGUGGCUAGACUGCCUCUCUGGAUUCCUCGUCACUCAGCAGGGCAUCUCUGAGAGAAACGCC [G32U U143C] | 1.1
UACGUAGGUGGUUUUCCCCUGAUAGUGCUAAAGGGGCCUGGAAGUUUGGACUGGGCAGAGCUCAACACAGCGUGGCAAAGUGGCUGUGGCUAGACUGCCUCUCUGGAUUCCUCGUCACUCAACAGGGCAUCUCUGAGAGAAAUGCC [G32A G122A] | 2.13
UACGUAGGUGGUUUUCCCCUGAUAGUGCUAAGAGGGCCUGGAAGUUUGGACUGGGCAGAGCUCAACACAGCGUGGCAAAGUGGCUGUGGCUAGACUGCCUCUCUGGAUUCCUCGUCACUCAGCAGGGCAUCUCUGAGAGAAAUGCC [G33A] | 1.14
UACGUAGGUGGUUUUCCCCUGAUAGUGCUAACGGGGCCUGGAAGUUUGGACUGGGCAGAGCUCAACACAGCGUGGCAAAGUGGCUGUGGCUAGACUGCCUCUCUGGAUUCCUCGUCGCUCAGCAGGGCAUCUCUGAGAGAAAUGCC [G32C A117G] | 1.53
UACGUAGGUGGUUUUCCCCUGAUAGUGCUAACGGGGCCUGGAAGUUUGGACUGGGCAGAGCUCAACGCAGCGUGGCAAAGUGGCUGUGGCUAGACUGCCUCUCUGGAUUCCUCGUCACUCAGCAGGGCAUCUCUGAGAGAAAUGCC [G32C A67G] | 0
UACGUAGGUGGUUUUCCCCUGAUAGUGCUAAAGGGGCCCGGAAGUUUGGACUGGGCAGAGCUCAACACAGCGUGGCAAAGUGGCUGUGGCUAGACUGCCUCUCUGGAUUCCUCGUCACUCAGCAGGGCAUCUCUGAGAGAAAUGCC [G32A U39C] | 1.07
UACGUAGGUGGUUUUCCCCUGAUAGUGCUAAUGGGGCCUGGAAGUUUGGACUGGGCAGAGCUCAACACAGCGUGGCAAAGUGGCUGUGGCUAGACUGCCUCUCUGGAUUCCUCGUCACUCAGCAGGGCAUCUCCGAGAGAAAUGCC [G32U U134C] | 0.74
UACGUAGGUGGUUUUCCCCUGAUAGUGCUAAUGGGGCCUGGAAGUUUGGACUGGGCAGAGCUCAGCACAGCGUGGCAAAGUGGCUGUGGCUAGACUGCCUCUCUGGAUUCCUCGUCACUCAGCAGGGCAUCUCUGAGAGAAAUGCC [G32U A65G] | 0.12
UACGUAGGUGGUUUUCCCCUGAUAGUGCUAAAGGGGCCUGGAAGUUUGGACUGGGCAGAGCUCAACACAGCGUGGCAAAGUGGCUGUGGCUAGACUGCCUCUCUGGAUUCCUCGUCACUCAGCAGGGCACCUCUGAGAGAAAUGCC [G32A U130C] | 1.26
UACGUAGGUGGUUUUCCCCUGAUAGUGCUAACGGGGCCUGGAAGUUUGGACUGGGCAGAGCUCAACACAGCGUGGCAAAGUGGCUGAGGCUAGACUGCCUCUCUGGAUUCCUCGUCACUCAGCAGGGCAUCUCUGAGAGAAAUGCC [G32C U87A] | 0.06
UACGUAGGUGGUUUUCCCCUGAUAGUGCUAAUGGGGCCUGGAAGUUUGGACUGGGCAGAGCUCAACACAGCGUGGCAAAGUGGCUGUGGCUAGACUGCCCCUCUGGAUUCCUCGUCACUCAGCAGGGCAUCUCUGAGAGAAAUGCC [G32U U100C] | 2.02
UACGUAGGUGGUUUUCCCCUGAUAGUGCUAAAGGGGCCUGGAAGUUUGGACUGGGCAGAGCUCAACACAGCGUGGCAAAGUGGCUGUGGCUAGACUGCCUCUCUGGAUUCCCCGUCACUCAGCAGGGCAUCUCUGAGAGAAAUGCC [G32A U112C] | 1.36
UACGUAGGUGGUUUUCCCCUGAUAGUGCUAAAGGGGCCUGGAAGUUUGGACUGGGCAGAGCUCAACACAGCGUGGCAAAGUGGCUGUGGCUAGACUGCCUCUCAGGAUUCCUCGUCACUCAGCAGGGCAUCUCUGAGAGAAAUGCC [G32A U104A] | 1.17
UACGUAGGUGGUUUUCCCCUGAUAGUGCUAAAGGGGCCUGGAAGUUUGGACUGGGCAGAGCUCAACACAGCGUGGCAAAGUGGCUGUGGCUAGACUGCCUCUCUGGACUCCUCGUCACUCAGCAGGGCAUCUCUGAGAGAAAUGCC [G32A U108C] | 0.76
UACGUAGGUGGUUUUCCCCUGAUAGUGCUAAAGGGGCCUGGAAGUUUGGACUGGGCAGAGCUCAACACAGCGUGGCAAAGUGGCUGUGGCUAGACUGCCUCUCUGGAUUCCUCGUCACACAGCAGGGCAUCUCUGAGAGAAAUGCC [G32A U119A] | 1.1
UACGUAGGUGGUUUUCCCCUGAUAGUGCUAAUGGGGCCUGGAAGUUUGGACUGGGCAGAGCUCAACACAGCGAGGCAAAGUGGCUGUGGCUAGACUGCCUCUCUGGAUUCCUCGUCACUCAGCAGGGCAUCUCUGAGAGAAAUGCC [G32U U73A] | 0.89
UACGUAGGUGGUUUUCCCCUGAUAGUGCUAAUGGGGCCUGGAAGUUUGGACUGGACAGAGCUCAACACAGCGUGGCAAAGUGGCUGUGGCUAGACUGCCUCUCUGGAUUCCUCGUCACUCAGCAGGGCAUCUCUGAGAGAAAUGCC [G32U G55A] | 0.18
